Patent US20100040635A1 (SEA LANE BIOTECHNOLOGIES, published 2010)
Changes are numbered by the printed parent chain.

B1: Antibody 4 (antibody, V domains shown)
VH: QVQLQESGPGLVKPSETLSLTCTVSGYSFDSGYYWGWLRQPPGKGLEWIGSIYHSRNTYYNPSLKSRVTISVDTSKNQFSLQLSSVTAADTAVYYCARGTWYSSNLRYWFDPWGKGTL
VL: NFMLTQPHSVSESPGKTVTISCTGSGGNIARNYVQWYQQRPGSAPVTVILEDDKRPSGIPDRFSGSIDRSSNSASLTISGLRTEDEALYYCQSYDDSDLVVFGGGTKLT
B2: Antibody 1 (antibody, V domains shown)
VH: QVQLVQSGAEVKKPGSSVRVSCKTSGGTFSSYAVTWVRQAPGQGLEWMGGIIGMFGTTNYAQKFQGRLTITADEMTSTAYMELSSLRSEDTAVYYCARGSYYYETTLDYWGRGTL
VL: ETTLTQSPGTLSLSPGERATLSCRVSQSVSSNYLAWYQQKPGQAPRLLIYGASSRATGIPDRFSGSGSGTDFTLTISRLEPEDFAVYYCQQYGTSPRAFGHGTKVEIKR
B3: Antibody 2 (antibody, V domains shown)
VH: B2 VH with R19K, L68V, M75L, T105S, T106S
VL: ETTLTQSPATLSVSPGERATLSCRASQSVSRNLAWYQQKPGQAPRLLIYGASSRATGIPDRFSGSGSGTDFTLTISRLEPEDFAVYYCQQYGSSSITFGQGTRLEIKR
B4: Antibody 3 (antibody, V domains shown)
V domain 1: B2 VH with Q1E, R19K, G50A, L68V, M75L, E89D, T105S, T106S, R112K
V domain 2: QSVLTQPPSVSGAPGQRVTISCGGSRSNIGAGYDVHWYQQFPGTAPKVVIYGNNNRPSGVPDRFSGSKSGTSASLAITGLQAEDEANYYCQSYDTNLGGSIFGGGTQVTVL

Target: H3 hemagglutinin of influenza A/Hong Kong/68 (influenza A virus H3 A/Hong Kong/68)
Experiment: cell-based or functional assay

Row | Binder | Minimum inhibitory concentrations required to neutralize virus
1 | B1 | > 333 µg/mL
2 | B2 | > 333 µg/mL
3 | B3 | > 333 µg/mL
4 | B4 | > 333 µg/mL
